# Measured values as given in US20090149339A1 (published 2009).
# Ends that are not written are not given here. * marks the point of attachment. Biotin = O=C1N[C@H]2[C@H](CS[C@H]2CCCCC(=O)*)N1
# Assays:
# [1] = molecular target: T1, GST-41.8 kD PDZ domain fusion protein (hypothetical 41.8 kD protein AA4-85; PDZ domain 1 of 1) (UniProt P08515 1-218 = GST); assay: A assay
# T1 construct: also called hypoth
# [2] = molecular target: T2, GST-PSD95 PDZ domain fusion protein (human post-synaptic density protein 95 AA387-724; PDZ domains 1-3 of 3) (human, UniProt P08515 1-218 = GST); assay: A/G assays
# T2 sequence (P08515 1-218, tags or fused parts left off): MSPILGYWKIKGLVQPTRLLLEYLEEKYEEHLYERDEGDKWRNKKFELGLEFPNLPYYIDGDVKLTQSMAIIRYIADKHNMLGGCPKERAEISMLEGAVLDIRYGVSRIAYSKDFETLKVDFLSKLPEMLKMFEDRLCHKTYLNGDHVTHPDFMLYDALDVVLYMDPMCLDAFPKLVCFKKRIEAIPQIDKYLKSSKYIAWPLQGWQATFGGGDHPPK
# [3] = molecular target: T3, GST-CBP PDZ domain fusion protein (Cytohesin binding protein HE AA85-175; PDZ domain 1 of 1) (UniProt P08515 1-218 = GST); assay: A/G assays
# T3 construct: also called Prot
# [4] = molecular target: GST-MPP1 PDZ domain fusion protein (55 Kd erythrocyte membrane protein AA101-186; PDZ domain 1 of 1) (UniProt P08515 1-218 = GST); assay: A/G assays
# Sequence of GST-MPP1 PDZ domain fusion protein (55 Kd erythrocyte membrane protein AA101-186; PDZ domain 1 of 1) (P08515 1-218, tags or fused parts left off): as above
# [5] = molecular target: T4, GST-KIAA0316 PDZ domain fusion protein (KIAA0316 AA197-284; PDZ domain 1 of 1) (UniProt P08515 1-218 = GST); assay: A/G assays
# T4 construct: also called K316
# T4 sequence (P08515 1-218, tags or fused parts left off): as above
# [6] = molecular target: GST-AF6 PDZ domain fusion protein (af-6 protein AA985-1077; PDZ domain 1 of 1) (UniProt P08515 1-218 = GST); assay: A/G assays
# [7] = molecular target: T5, GST-KIAA0303 PDZ domain fusion protein (KIAA0303 AA652-742; PDZ domain 1 of 1) (UniProt P08515 1-218 = GST); assay: A/G assays
# T5 construct: also called K303
# T5 sequence (P08515 1-218, tags or fused parts left off): as above
# [8] = molecular target: GST-prIL16 PDZ domain fusion protein (putative interleukin 16 precursor AA170-383; PDZ domains 1-2 of 2) (UniProt P08515 1-218 = GST); assay: A/G assays
# Sequence of GST-prIL16 PDZ domain fusion protein (putative interleukin 16 precursor AA170-383; PDZ domains 1-2 of 2) (P08515 1-218, tags or fused parts left off): as above
# [9] = molecular target: T6, GST-SYN1a PDZ domain fusion protein (alpha1-syntrophin AA96-189; PDZ domain 1 of 1) (UniProt P08515 1-218 = GST); assay: A/G assays
# T6 construct: also called SYN 1 alpha; SYNTR 1 alpha
# T6 sequence (P08515 1-218, tags or fused parts left off): as above
# [10] = molecular target: GST-PTN-4 PDZ domain fusion protein (protein-tyrosine phosphatase meg1 AA774-862; PDZ domain 1 of 1) (UniProt P08515 1-218 = GST); assay: A/G assays
# Sequence of GST-PTN-4 PDZ domain fusion protein (protein-tyrosine phosphatase meg1 AA774-862; PDZ domain 1 of 1) (P08515 1-218, tags or fused parts left off): as above
# [11] = molecular target: T7, GST-TAX40 PDZ domain fusion protein (human tax interaction protein 40 AA35-137; PDZ domain 1 of 1) (human, UniProt P08515 1-218 = GST); assay: A/G assays
# T7 construct: also called TX 40
# T7 sequence (P08515 1-218, tags or fused parts left off): as above
# [12] = molecular target: T8, GST-TAX43 PDZ domain fusion protein (human tax interaction protein 43 AA15-85; PDZ domain 1 of 1) (human, UniProt P08515 1-218 = GST); assay: A/G assays
# T8 construct: also called TX 43
# T8 sequence (P08515 1-218, tags or fused parts left off): as above
# [13] = molecular target: T9, GST-RGS12 PDZ domain fusion protein (human regulator of G-protein signalling 12 AA35-103; PDZ domain 1 of 1) (human, UniProt P08515 1-218 = GST); assay: A/G assays
# T9 construct: also called RSG12
# T9 sequence (P08515 1-218, tags or fused parts left off): as above
# [14] = molecular target: T10, GST-TAX2 PDZ domain fusion protein (human tax interaction protein 2 AA54-140; PDZ domain 1 of 1) (human, UniProt P08515 1-218 = GST); assay: A/G assays
# T10 construct: also called TX 2
# T10 sequence (P08515 1-218, tags or fused parts left off): as above
# [15] = molecular target: GST-MINT3 PDZ domain fusion protein (human MINT3 AA11-52; PDZ domain 1 of 1) (human, UniProt P08515 1-218 = GST); assay: A/G assays
# Sequence of GST-MINT3 PDZ domain fusion protein (human MINT3 AA11-52; PDZ domain 1 of 1) (P08515 1-218, tags or fused parts left off): as above
# [16] = molecular target: T11, GST-MPP2 PDZ domain fusion protein (maguk p55 subfamily member 2 (DLG2) AA185-273; PDZ domain 1 of 1) (UniProt P08515 1-218 = GST); assay: A/G assays
# T11 construct: also called MMP2
# T11 sequence (P08515 1-218, tags or fused parts left off): as above
# [17] = molecular target: T12, GST-NeDLG PDZ domain fusion protein (presynaptic protein sao102, neuroendocrine-dlg; PDZ domains 1-2 of 3) (UniProt P08515 1-218 = GST); assay: A/G assays
# T12 construct: also called NeDLG1
# T12 sequence (P08515 1-218, tags or fused parts left off): as above
# [18] = molecular target: GST-LIMK2 PDZ domain fusion protein (human LIM domain kinase 2 AA185-275; PDZ domain 1 of 1) (human, UniProt P08515 1-218 = GST); assay: A/G assays
# Sequence of GST-LIMK2 PDZ domain fusion protein (human LIM domain kinase 2 AA185-275; PDZ domain 1 of 1) (P08515 1-218, tags or fused parts left off): as above
# [19] = molecular target: GST-LIM PDZ domain fusion protein (Human LIM protein AA29-112; PDZ domain 1 of 1) (human, UniProt P08515 1-218 = GST); assay: A/G assays
# Sequence of GST-LIM PDZ domain fusion protein (Human LIM protein AA29-112; PDZ domain 1 of 1) (P08515 1-218, tags or fused parts left off): as above
# [20] = molecular target: T13, GST-CASK PDZ domain fusion protein (CASK AA495-584; PDZ domain 1 of 1) (mouse, UniProt P08515 1-218 = GST); assay: A/G assays
# T13 construct: also called mCASK
# T13 sequence (P08515 1-218, tags or fused parts left off): as above
# [21] = molecular target: T14, GST-TAX33 PDZ domain fusion protein (tax interaction protein 33 AA73-162; PDZ domain 1 of 1) (UniProt P08515 1-218 = GST); assay: A/G assays
# T14 construct: also called TX33
# T14 sequence (P08515 1-218, tags or fused parts left off): as above
# [22] = molecular target: GST-TIAM1 PDZ domain fusion protein (T-lymphoma invasion and metastasis inducing protein 1 AA1001-1088); PDZ 1 … (UniProt P08515 1-218 = GST); assay: A/G assays
# Sequence of GST-TIAM1 PDZ domain fusion protein (T-lymphoma invasion and metastasis inducing protein 1 AA1001-1088); PDZ 1 … (P08515 1-218, tags or fused parts left off): as above
# [23] = molecular target: GST-DVL1 PDZ domain fusion protein (human dishevelled segment polarity protein homolog AA248-340); PDZ domain … (human, UniProt P08515 1-218 = GST); assay: A/G assays
# [24] = molecular target: T15, GST-KIAA0559 PDZ domain fusion protein (KIAA0559 AA766-870; PDZ1 of 1) (UniProt P08515 1-218 = GST); assay: A/G assays
# T15 construct: also called K559
# T15 sequence (P08515 1-218, tags or fused parts left off): as above
# [25] = molecular target: GST-NOS1 PDZ domain fusion protein (human neuronal nitric oxide synthase; PDZ domain 1 of 1) (human, UniProt P08515 1-218 = GST); assay: A/G assays
# [26] = molecular target: T1, GST-41.8 kD PDZ domain fusion protein …; assay: A and G assays
# [27] = molecular target: T12, GST-NeDLG PDZ domain fusion protein …; assay: G assay
# [28] = molecular target: T2, GST-PSD95 PDZ domain fusion protein …; assay: A and G assays
# [29] = molecular target: T1, GST-41.8 kD PDZ domain fusion protein …; assay: A/G assays
# T1 sequence (P08515 1-218, tags or fused parts left off): as above
Binder,binding result [3],binding result [4],binding result [5],binding result [6],binding result [7],binding result [8],binding result [9],binding result [10],binding result [11],binding result [12],binding result [13],binding result [14],binding result [15],binding result [16],binding result [18],binding result [19],binding result [20],binding result [21],binding result [22],binding result [23],other results
"Biotin-SPQPDSTDNDDYDDISAA [CD6 C-terminal PL peptide AA6L, biotinylated]",no binding,no binding,no binding,no binding,no binding,no binding,no binding,no binding,no binding,no binding,no binding,no binding,no binding,no binding,no binding,no binding,no binding,no binding,no binding,no binding,binding result [1]: binds; binding result [2]: no binding; binding result [17]: no binding; binding result [24]: no binding; binding result [25]: no binding
"Biotin-PYGTAMEKAQLKPPATSDA [CD49E (alpha-4) C-terminal PL peptide AA11L, biotinylated]",no binding,no binding,no binding,no binding,no binding,no binding,no binding,no binding,no binding,no binding,no binding,no binding,no binding,no binding,no binding,no binding,no binding,no binding,no binding,no binding,binding result [26]: binds; binding result [2]: no binding; binding result [17]: no binding; binding result [24]: no binding; binding result [25]: no binding
"Biotin-KKGTYLTDETHREVKFTSL [CD46 (form 1) C-terminal PL peptide AA10L, biotinylated]",no binding,no binding,no binding,no binding,no binding,no binding,no binding,no binding,no binding,no binding,no binding,no binding,no binding,no binding,no binding,no binding,no binding,no binding,no binding,no binding,binding result [27]: binds; binding result [28]: binds; binding result [29]: no binding; binding result [24]: no binding; binding result [25]: no binding
"Biotin-PSWRRSSLSESENATSLTTF [BLR-1 C-terminal PL peptide AA45L, biotinylated]",no binding,no binding,no binding,no binding,no binding,no binding,no binding,no binding,no binding,no binding,no binding,no binding,no binding,no binding,no binding,no binding,no binding,no binding,no binding,no binding,binding result [2]: no binding; binding result [29]: no binding; binding result [17]: no binding; binding result [24]: no binding; binding result [25]: no binding
"Biotin-TSGTGHNQTRALRASESGI [CD97 (CD55L) C-terminal PL peptide AA14L, biotinylated]",no binding,no binding,no binding,no binding,no binding,no binding,no binding,no binding,no binding,no binding,no binding,no binding,no binding,no binding,no binding,no binding,no binding,no binding,no binding,no binding,binding result [1]: binds; binding result [2]: no binding; binding result [17]: no binding; binding result [24]: no binding; binding result [25]: no binding
